Measured values as given in patent US20230414780A1 (VECT HORUS, published 2023).

Tests used:
[1] = biological target: T1, human transferrin receptor (hTfR) fused to EGFP, on CHO cells (human, UniProt P02786 1-760); assay: competition flow cytometry on CHO-hTfR-EGFP cells, 4 C; VHH competitor in dilution series, phage-H1 tracer at EC80, anti-M13-A647
T1 construct: whole, on cells; also called human TfR; CHO-hTfR-EGFP; not shown: EGFP from pEGFP-C1 vector, fused to the N-terminal (intracellular) end of hTfR
Protocol: FIGS. 17A-17D: Competition assays between VHHs and phage-VHHs. CHO-hTfR-EGFP cells were incubated 1 hr at 4° C. with VHHs (competitors) at increasing concentrations. Phage-VHHs (tracers) were then added at EC80 and incubated for 1 more hr. Phage-VHHs were detected with an anti-M13-A647 antibody (1/200). Fluorescence levels were assessed using flow cytometry. The ratio of fluorescence intensity for each point was normalized with the corresponding EGFP signal (receptor expression) and gave rise to the arbitrary unit. Data are presented as mean±SEM of independent experiments.
To evaluate whether selected VHHs compete one with the other for binding to the TfR receptor, competition assays using flow cytometry experiments were performed. All experiments were performed in 96 well plates using 2×10⁵ cells/well, at 4° C. with shaking. CHO cell line expressing the hTfR fused to EGFP was saturated with PBS/BSA 2% solution during 30 min to avoid nonspecific binding, followed by incubation with VHH (competitors) at increasing concentrations for 1 hr. Then, phage-VHHs (tracers) at EC80 were added and incubated 1 hr more. To detect the phage-VHHs, cells were washed twice with PBS/BSA 2% and incubated for 1 hr with an Alexa647-conjugated anti-M13 antibody. […] Fluorescence levels were assessed using an Attune NxT flow cytometer (Thermo Fisher Scientific). […]

[2] = biological target: T2, mouse transferrin receptor (mTfR) fused to EGFP, on CHO cells (mouse, UniProt Q62351 1-763); assay: flow cytometry, CHO cells
T2 construct: whole, on cells; also called mouse TfR; CHO-mTfR-EGFP; not shown: EGFP
Protocol: (§1) The binding properties of VHHs with affinity for the TfR from different species (i.e., human (h), mouse (m) and rhesus monkey (rh)) were tested using flow cytometry, and apparent affinities (Kd app) were determined. All experiments were performed in 96 well plates using 2×10⁵ cells/well, at 4° C. with shaking. CHO cell lines expressing the hTfR, mTfR or rhTfR fused to EGFP were saturated with PBS/BSA 2% solution during 30 min to avoid nonspecific binding, followed by incubation with purified VHHs at increasing concentrations for 1 hr. After one wash in PBS/BSA 2%, cells were incubated for 1 hr with an anti-6His tag antibody (mouse), washed twice with PBS/BSA 2%, and incubated for 1 hr with an Alexa647-conjugated anti-mouse secondary antibody. After two last washes in PBS/BSA 2%, cells were fixed by incubation for 15 min with PBS/PFA 2%, washed once with PBS and finally resuspended in PBS. Fluorescence levels were assessed using an Attune NxT flow cytometer (Thermo Fisher Scientific). Experimental data were fitted with GraphPad Prism® software using a nonlinear fit to determine the apparent Kd constants. […] Table 5 hereafter summarizes apparent Kd obtained for the tested VHHs.

[3] = biological target: T3, rhesus monkey transferrin receptor (rhTfR) fused to EGFP, on CHO cells (rhesus monkey); assay: apparent Kd, flow cytometry, CHO cells
T3 construct: whole, on cells; also called rhesus monkey TfR
How it was run: (§2)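 CHO cells expressing TfR-EGFP fusions, blocked in PBS/BSA 2%, then incubated with increasing VHH concentrations for 1 hr at 4° C. Bound VHH detected via anti-6His antibody and Alexa647 secondary, cells PFA-fixed, read by flow cytometry. Apparent Kd from nonlinear fit.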

[4] = biological target: T1, human transferrin receptor (hTfR) fused …; assay: apparent Kd, flow cytometry, CHO cells
How it was run: as §2

[5] = biological target: T1, human transferrin receptor (hTfR) fused …; assay: cell-based assay on hTfR; Kd/app (the text, paragraph 408, gives 16.7 nM for this molecule)
[6] = biological target: T1, human transferrin receptor (hTfR) fused …; assay: apparent Kd, cell-based assay
[7] = biological target: T1, human transferrin receptor (hTfR) fused …; assay: flow cytometry, CHO cells
Protocol: as §1

[8] = biological target: T1, human transferrin receptor (hTfR) fused …; assay: cell-based assay on hTfR; Kd/app (the text, paragraph 408, gives 25.6 nM for this molecule)

T1 sequence (P02786 whole entry, the tested form may be a part): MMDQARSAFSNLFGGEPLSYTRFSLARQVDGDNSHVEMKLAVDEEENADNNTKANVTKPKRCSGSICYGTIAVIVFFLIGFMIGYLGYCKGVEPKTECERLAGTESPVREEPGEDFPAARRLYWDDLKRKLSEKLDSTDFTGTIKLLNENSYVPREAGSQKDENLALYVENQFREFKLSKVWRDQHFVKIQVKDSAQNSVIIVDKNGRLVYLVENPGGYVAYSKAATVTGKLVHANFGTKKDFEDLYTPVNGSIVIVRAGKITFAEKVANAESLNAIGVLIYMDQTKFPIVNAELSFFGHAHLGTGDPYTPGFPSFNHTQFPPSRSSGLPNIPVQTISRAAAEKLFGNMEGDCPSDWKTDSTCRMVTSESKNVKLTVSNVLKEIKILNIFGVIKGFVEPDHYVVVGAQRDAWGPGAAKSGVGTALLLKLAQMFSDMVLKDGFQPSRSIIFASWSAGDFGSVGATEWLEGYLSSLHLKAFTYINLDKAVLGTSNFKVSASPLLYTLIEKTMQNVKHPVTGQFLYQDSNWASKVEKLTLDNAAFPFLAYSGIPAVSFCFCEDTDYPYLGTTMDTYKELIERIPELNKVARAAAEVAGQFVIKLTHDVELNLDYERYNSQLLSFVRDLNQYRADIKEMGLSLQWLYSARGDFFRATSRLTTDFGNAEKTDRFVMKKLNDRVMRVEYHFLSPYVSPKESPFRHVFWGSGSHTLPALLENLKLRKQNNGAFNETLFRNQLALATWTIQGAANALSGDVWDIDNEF
T2 sequence (Q62351 whole entry, the tested form may be a part): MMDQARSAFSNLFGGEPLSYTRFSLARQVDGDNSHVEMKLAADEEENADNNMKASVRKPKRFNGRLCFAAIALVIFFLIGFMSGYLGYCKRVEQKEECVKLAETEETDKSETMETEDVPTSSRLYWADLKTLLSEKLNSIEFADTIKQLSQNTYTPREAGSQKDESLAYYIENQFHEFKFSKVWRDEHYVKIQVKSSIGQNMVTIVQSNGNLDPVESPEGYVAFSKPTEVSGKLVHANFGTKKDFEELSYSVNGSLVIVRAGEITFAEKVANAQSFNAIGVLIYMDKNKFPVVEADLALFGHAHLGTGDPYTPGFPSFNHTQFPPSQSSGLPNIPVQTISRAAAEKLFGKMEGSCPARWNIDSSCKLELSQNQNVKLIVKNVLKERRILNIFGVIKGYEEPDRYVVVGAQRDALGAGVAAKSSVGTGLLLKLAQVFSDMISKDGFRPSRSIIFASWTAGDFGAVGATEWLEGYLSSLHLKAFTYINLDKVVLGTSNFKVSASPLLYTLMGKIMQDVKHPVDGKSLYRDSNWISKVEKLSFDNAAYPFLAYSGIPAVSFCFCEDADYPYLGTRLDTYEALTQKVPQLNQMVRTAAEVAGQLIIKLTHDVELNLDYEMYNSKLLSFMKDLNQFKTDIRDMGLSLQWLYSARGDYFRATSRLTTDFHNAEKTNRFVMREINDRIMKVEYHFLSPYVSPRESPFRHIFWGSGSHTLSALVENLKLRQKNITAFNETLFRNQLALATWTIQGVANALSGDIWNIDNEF

B1: E8 (VHH)
VHH: EVQLVESGGRLVQAGGSLRLSCTASGLAFSTHTMHWFRQAPGKEREFVGAIRWSDEDTEYADSVKGRFTISRDNAKSTVYLQMNNLKPEDTAVYYCAAARGVGTSGHMKYWGQGTQVTVSS
In the case of B1, the “IC50 (read off the curve)” value [1] is reported as ~40 nM, the binding result [2] is reported as “no binding” and the Kd [3] is reported as 2.1 nM. It also gave a Kd [4] of 3.4 nM.

B2: C5V30-NT(8-13) (VHH)
VHH: EVQLVESGGGVVQPGGSLKLSCVASGTDKSINFIRWYRQAPGKQREFVAGFTATGNTNYADSMKGRFTISRDNTKNAVYLQIDSLKPEDTAVYYCYMLDKWGQGTQVTVSS
B2 was tested, and the Kd [5] was 25.6 nM and the Kd [6] was 16.7 nM.

B3: D12 (neg ctrl) (VHH)
VHH: EVQLVESGGGLVQPGGSLRLSCAASGFTFGSYVMSWVRQAPGKGPEWVSTVSSGGGTTYYADSVKGRFTISRDNAQNTLYLQMNSLKPEDTAVYYCATGRTGLGEGDHRGQGTQVTSSAAAEQKLISEEDLNGAAHHHHHHGS
notes: also called control VHH D12
B3: no binding [7]; no binding [2].

B4: B8V31-NT(8-13) (VHH)
VHH: EVQLVESGGGVVQPGGSLRLSCAASGEIKSINFMRWYRQAPGKQREWVAGFTRDGSTNYPDSAKGRFTISRDNAKNTVYLQIDSLKPEDTAVYYCYMLDTWGQGTQVTVSS
Binder B4 has a Kd [8] of 16.7 nM and a Kd [6] of 25.6 nM.
